Results reported in the supplement of paper PMC12783771.
± gives the standard deviation of the averaged measurements.

B1: library; numbered along this chain (parent)
chain: MNIQIGELAKRTACPVVTIRFYEQEGLLPPPGRSRGNFRLYGEEHVERLQFIRHCRSLDMPLSDVRTLLSYRKRPDQDCGEVNMLLDEHIRQVESRIGALLELKHHLVELREACSGARPAQSCGILQGLSDCVCDTRGTTAHPSD

Experiments:
[1] = variants of: B1; assay: sfGFP reporter fluorescence (15 h) (µM FITC); higher = higher leak; conditions: library round: Round 0; ligand: none
Outline: (§1)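 PCR-made linear PbrR templates (Echo-normalized to 5 nM) were expressed in BL21 Star (DE3) extract (PANOx-SP) with pPbrR-sfGFP reporter plasmid and 30 μg/mL GamS. Reactions were 1 μL, Echo-assembled, with 1 µM lead chloride, 30 µM zinc acetate or no metal, incubated 15 hr at 30 °C. Endpoint sfGFP fluorescence (485/528 nm, Synergy Neo2) was converted to µM FITC via standard curves in 50 mM sodium borate pH 8.5. Up to three biological replicates.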

[2] = variants of: B1; assay: sfGFP reporter fluorescence (15 h) (µM FITC); higher = stronger transcriptional activation; conditions: library round: Round 0
Outline: as §1

| Variant | sfGFP reporter fluorescence [1] | sfGFP reporter fluorescence ([2]; ligand: 1 µM Pb) | sfGFP reporter fluorescence ([2]; ligand: 30 µM Zn) |
| --- | --- | --- | --- |
| M60L L107C G128I | 2.19 ± 0.17 | 3.42 ± 0.14 | 2.98 ± 0.17 |
| L62R | 0.06377 ± 0.00052 | 0.0643 ± 0.0013 | 0.0704 ± 0.0047 |
| E7C | 0.06121 ± 0.00052 | 0.0718 ± 0.0021 | 0.421 ± 0.026 |
| E7F | 0.0601 ± 0.0015 | 0.0636 ± 0.0013 | 0.133 ± 0.012 |
| E7A | 0.0552 ± 0.0018 | 0.0671 ± 0.001 | 1.07 ± 0.011 |
| E7T | 0.0625 ± 0.0018 | 0.0894 ± 0.001 | 0.904 ± 0.041 |
| C55P | 0.0596 ± 0.00078 | 0.0597 | 0.05846 ± 0.00026 |
| C55K | 0.0608 ± 0.0015 | 0.061 ± 0.0018 | 0.0607 ± 0.00078 |
| C55R | 0.0596 ± 0.0018 | 0.0592 ± 0.0013 | 0.0572 |
| C55M | 0.0645 ± 0.0015 | 0.0733 ± 0.0026 | 0.139 ± 0.018 |
| C55T | 0.0577 ± 0.00078 | 0.0594 ± 0.0042 | 0.129 ± 0.0018 |
| C55V | 0.0629 ± 0.0029 | 0.0773 ± 0.0047 | 0.273 ± 0.0029 |
| C55I | 0.0583 ± 0.0026 | 0.0616 | 0.112 ± 0.0057 |
| L69A | 0.0629 ± 0.0018 | 0.0627 ± 0.0021 | 0.2252 ± 0.0013 |
| M60L P61N D64K K104V G128I | 0.345 ± 0.029 | 0.915 ± 0.075 | 2.39 ± 0.063 |
| P143E | 0.0563 ± 0.00078 | 0.0696 ± 0.0026 | 0.635 ± 0.04 |
| P143L | 0.0563 ± 0.0018 | 0.0782 ± 0.0029 | 0.837 ± 0.046 |
| P143S | 0.0566 ± 0.0023 | 0.07568 ± 0.00026 | 0.842 ± 0.05 |
| P143R | 0.05864 ± 0.00052 | 0.0806 ± 0.0052 | 0.983 ± 0.14 |
| P143V | 0.0559 ± 0.0013 | 0.0726 ± 0.0026 | 0.757 ± 0.14 |
| I125Q | 0.0588 ± 0.00078 | 0.0597 ± 0.0015 | 0.055 ± 0.0021 |
| I125F | 0.0553 ± 0.001 | 0.0579 ± 0.0021 | 0.05259 ± 0.00026 |

| Variant | sfGFP reporter fluorescence [1] | sfGFP reporter fluorescence ([2]; ligand: 1 µM Pb) | sfGFP reporter fluorescence ([2]; ligand: 30 µM Zn) |
| --- | --- | --- | --- |
| G98A | 0.0614 ± 0.00078 | 0.0762 ± 0.0021 | 0.793 ± 0.06 |
| K104V L107A | 0.166 ± 0.0088 | 0.817 ± 0.042 | 2.18 ± 0.12 |
| L58E | 0.0619 ± 0.001 | 0.0625 ± 0.0013 | 0.064 ± 0.0018 |
| L58F | 0.0592 ± 0.0018 | 0.0731 ± 0.0013 | 0.261 ± 0.027 |
| L58M | 0.0583 | 0.0581 ± 0.00078 | 0.0748 ± 0.0015 |
| L58V | 0.0583 ± 0.001 | 0.0568 ± 0.0021 | 0.061 ± 0.0018 |
| L58Q | 0.0596 ± 0.0018 | 0.05901 ± 0.00052 | 0.0711 ± 0.0021 |
| R53A | 0.0614 ± 0.0018 | 0.06652 ± 0.00026 | 0.487 ± 0.074 |
| M60E | 0.107 ± 0.00052 | 0.463 ± 0.039 | 1.67 ± 0.012 |
| M60L | 0.1063 ± 0.00052 | 0.295 ± 0.035 | 2.8 ± 0.031 |
| M60P | 0.0605 | 0.05974 ± 0.00052 | 0.05516 ± 0.00026 |
| M60H | 0.0623 ± 0.0015 | 0.0614 ± 0.00078 | 0.0638 ± 0.0015 |
| M60V | 0.0715 ± 0.0015 | 0.1459 ± 0.001 | 1.05 ± 0.012 |
| M60W | 0.135 ± 0.0096 | 0.384 ± 0.026 | 0.926 ± 0.01 |
| E94S | 0.0674 ± 0.0036 | 0.132 ± 0.0031 | 1.51 ± 0.013 |
| E94K | 0.0612 ± 0.0026 | 0.0793 ± 0.0034 | 0.824 ± 0.043 |
| E94D | 0.0579 ± 0.0052 | 0.0623 | 0.32 ± 0.013 |
| E94I | 0.0555 ± 0.0034 | 0.08008 ± 0.00026 | 0.714 ± 0.013 |
| R111A | 0.0634 ± 0.0026 | 0.09932 ± 0.00052 | 1.17 ± 0.021 |
| R111K | 0.0575 ± 0.0015 | 0.06194 ± 0.00052 | 0.149 ± 0.02 |
| R111P | 0.0577 ± 0.0018 | 0.05846 ± 0.00026 | 0.0542 ± 0.0015 |
| G6I | 0.05846 ± 0.00026 | 0.0585 ± 0.0023 | 0.0618 ± 0.0018 |
